# Results reported in publication PMC2191977 (The Journal of Experimental Medicine, 1995).
# T1: B7 E180D (mouse, UniProt Q00609 38-306, E180D)
# T1 sequence (looked up): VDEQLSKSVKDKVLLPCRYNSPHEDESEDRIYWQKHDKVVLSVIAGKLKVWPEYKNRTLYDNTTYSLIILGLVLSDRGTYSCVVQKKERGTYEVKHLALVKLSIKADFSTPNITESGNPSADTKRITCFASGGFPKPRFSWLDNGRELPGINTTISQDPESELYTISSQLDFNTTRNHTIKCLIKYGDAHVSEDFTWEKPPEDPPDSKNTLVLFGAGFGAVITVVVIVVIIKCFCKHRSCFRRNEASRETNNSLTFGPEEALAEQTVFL
# T2: murine B7 (wild type) (mouse, UniProt Q00609 38-306)
# T2 sequence (looked up): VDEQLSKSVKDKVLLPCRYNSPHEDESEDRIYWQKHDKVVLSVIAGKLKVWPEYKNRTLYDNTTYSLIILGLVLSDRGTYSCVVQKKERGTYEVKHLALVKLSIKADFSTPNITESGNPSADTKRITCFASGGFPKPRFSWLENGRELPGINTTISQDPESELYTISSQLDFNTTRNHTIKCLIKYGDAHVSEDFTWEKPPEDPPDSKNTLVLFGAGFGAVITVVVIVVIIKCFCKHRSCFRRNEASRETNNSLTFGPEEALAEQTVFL
# T3: B7 L179V (mouse, UniProt Q00609 38-306, L179V)
# T3 sequence (looked up): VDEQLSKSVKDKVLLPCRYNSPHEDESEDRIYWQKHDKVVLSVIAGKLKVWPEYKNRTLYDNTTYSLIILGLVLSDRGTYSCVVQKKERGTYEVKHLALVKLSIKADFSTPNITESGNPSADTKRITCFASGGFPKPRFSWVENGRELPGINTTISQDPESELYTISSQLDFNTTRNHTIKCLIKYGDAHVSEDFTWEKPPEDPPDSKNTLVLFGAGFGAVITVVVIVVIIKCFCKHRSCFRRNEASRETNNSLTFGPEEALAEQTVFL
# T4: B7 K173E (mouse, UniProt Q00609 38-306, K173E)
# T4 sequence (looked up): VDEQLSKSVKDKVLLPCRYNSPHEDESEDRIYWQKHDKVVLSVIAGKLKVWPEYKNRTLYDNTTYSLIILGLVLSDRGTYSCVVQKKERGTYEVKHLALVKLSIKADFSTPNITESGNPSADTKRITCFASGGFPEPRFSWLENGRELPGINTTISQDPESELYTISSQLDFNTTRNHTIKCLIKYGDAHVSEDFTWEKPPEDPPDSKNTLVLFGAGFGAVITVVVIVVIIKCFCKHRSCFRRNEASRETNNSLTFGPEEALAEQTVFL
# T5: B7 LE/VD (L179V, E180D) (mouse, UniProt Q00609 38-306, L179E180>VD)
# T5 sequence (looked up): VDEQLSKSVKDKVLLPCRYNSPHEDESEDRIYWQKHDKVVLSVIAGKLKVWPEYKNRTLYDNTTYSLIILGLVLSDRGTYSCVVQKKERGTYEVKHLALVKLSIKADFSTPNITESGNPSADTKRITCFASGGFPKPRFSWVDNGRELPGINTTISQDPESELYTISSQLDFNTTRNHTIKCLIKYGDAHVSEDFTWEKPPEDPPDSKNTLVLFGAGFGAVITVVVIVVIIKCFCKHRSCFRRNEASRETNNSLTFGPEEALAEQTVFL
# T6: B7 L200A (mouse, UniProt Q00609 38-306, L200A)
# T6 sequence (looked up): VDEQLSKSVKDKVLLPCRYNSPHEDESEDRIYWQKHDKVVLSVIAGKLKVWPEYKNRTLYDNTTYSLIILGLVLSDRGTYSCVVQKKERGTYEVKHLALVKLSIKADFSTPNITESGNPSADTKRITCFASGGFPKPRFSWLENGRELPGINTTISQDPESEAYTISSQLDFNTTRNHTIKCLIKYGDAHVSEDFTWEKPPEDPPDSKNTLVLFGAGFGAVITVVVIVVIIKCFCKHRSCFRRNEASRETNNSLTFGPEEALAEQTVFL
# Experiments:
# Assay in all cases: flow cytometry on cells
# B7 E180D = biological target: T1, B7 E180D
# murine B7 (wild type) = biological target: T2, murine B7 (wild type)
# B7 L179V = biological target: T3, B7 L179V
# B7 K173E = biological target: T4, B7 K173E
# B7 LE/VD (L179V, E180D) = biological target: T5, B7 LE/VD (L179V, E180D)
# B7 L200A = biological target: T6, B7 L200A
binder,measurement,setting,value
"CD28Ig (Fc fusion, mouse, UniProt P31041 20-150, looked up) NKILVKQSPLLVVDSNEVSLSCRYSYNLLAKEFRASLYKGVNSDVEVCVGNGNFTYQPQFRSNAEFNCDGDFDNETVTFRLWNLHVNHTDIYFCKIEFMYPPPYLDNERSNGTIIHIKEKHLCHTQSSPKL",% wild-type B7 binding (normalised to anti-B7 mAb 10.16A.1),B7 E180D,68%
same,"MF (mean fluorescence, control subtracted)",B7 E180D,38 MF
same,% wild-type B7 binding (normalised to anti-B7 mAb 10.16A.1),murine B7 (wild type),100%
same,% wild-type B7 binding (normalised to anti-B7 mAb 10.16A.1),B7 L179V,18%
same,"MF (mean fluorescence, control subtracted)",B7 L179V,12 MF
same,% wild-type B7 binding (normalised to anti-B7 mAb 10.16A.1),B7 K173E,77%
same,"MF (mean fluorescence, control subtracted)",B7 K173E,44 MF
same,% wild-type B7 binding (normalised to anti-B7 mAb 10.16A.1),"B7 LE/VD (L179V, E180D)",40%
same,"MF (mean fluorescence, control subtracted)","B7 LE/VD (L179V, E180D)",16 MF
same,% wild-type B7 binding (normalised to anti-B7 mAb 10.16A.1),B7 L200A,53%
same,"MF (mean fluorescence, control subtracted)",B7 L200A,28 MF
